According to patent publication US20220002701A1 (CHILDREN S MEDICAL CENTER, published 2022):
Where two headings read alike, the source gives them in different places.

Assays:
[1] = biological target: T1, stabilized soluble SARS-CoV-2 S ectodomain trimer in the pre-fusion conformation (SARS-CoV-2; bacteriophage T4, UniProt P0DTC2 14-1208; P10104 458-484)
T1 construct: also called soluble S trimer; S trimer

[2] = biological target: T1, stabilized soluble SARS-CoV-2 S …; remark: listed apart in the source

B1: ACE2615-foldon-K353Y (receptor)
chain: QSTIEEQAKTFLDKFNHEAEDLFYQSSLASWNYNTNITEENVQNMNNAGDKWSAFLKEQSTLAQMYPLQEIQNLTVKLQLQALQQNGSSVLSEDKSKRLNTILNTMSTIYSTGKVCNPDNPQECLLLEPGLNEIMANSLDYNERLWAWESWRSEVGKQLRPLYEEYVVLKNEMARANHYEDYGDYWRGDYEVNGVDGYDYSRGQLIEDVEHTFEEIKPLYEHLHAYVRAKLMNAYPSYISPIGCLPAHLLGDMWGRFWTNLYSLTVPFGQKPNIDVTDAMVDQAWDAQRIFKEAEKFFVSVGLPNMTQGFWENSMLTDPGNVQKAVCHPTAWDLGYGDFRILMCTKVTMDDFLTAHHEMGHIQYDMAYAAQPFLLRNGANEGFHEAVGEIMSLSAATPKHLKSIGLLSPDFQEDNETEINFLLKQALTIVGTLPFTYMLEKWRWMVFKGEIPKDQWMKKWWEMKREIVGVVEPVPHDETYCDPASLFHVSNDYSFIRYYTRTLYQFQFQEALCQAAKHEGPLHKCDISNSTEAGQKLFNMLRLGKSEPWTLALENVVGAKNMNVRPLLNYFEPLFTWLKDQNKNSFVGWSTDWSPYADSGGGGSGGYIPEAPRDGQAYVRKDGEWVLLSTFLGGSHHHHHH
notes: also called Sol-ACE2-Foldon-K353Y
With B1 the Kd [1] was 32.3 nM, the ka2 [1] was 0.397 and the kdis2 [1] was 0.00545. The koff [1] was 0.00322 s⁻¹, the kon [1] was 99600 M⁻¹ s⁻¹ and the Kd [2] was 32.3 nM.
